Several values for one entry are separate records, joined by “and”; a condition that tells them apart may be missing. Equal entries are not always repeated.
What was measured:
TNF-alpha = target: T1, TNF-alpha (Homo sapiens, UniProt P01375); assay: Inhibition of TNF-alpha cytotoxicity against U937 by anti-TNF-alpha sdAbs; type: cell-based; settings: constant dose of TNF-alpha at EC50
T1 construct: host or cells: added exogenously to U937 cells

MDA-MB-231 cells = assay: MTT proliferation assay, MDA-MB-231; type: cell-based, human; settings: for Mean Absorbance (570 nM) ± S.E., Overall Mean: mean of 4 experiments; for Mean Growth Inhibition: individual experiments 1-4;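 for all read-outs here: cultures held at 37 °C in humidified 5% CO2, treated groups compared against vehicle-treated controls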

T1 sequence (P01375 77-233 limits assumed): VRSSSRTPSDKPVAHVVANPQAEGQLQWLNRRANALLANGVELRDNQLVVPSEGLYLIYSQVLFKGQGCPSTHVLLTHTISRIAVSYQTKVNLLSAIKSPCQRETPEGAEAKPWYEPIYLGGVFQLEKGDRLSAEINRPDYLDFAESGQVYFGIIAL

B1: anti-TNF-alpha VHH62: third anti-TNF-alpha sdAb (SEQ ID NO. 47) (protein)
VHH: QVQLVESGGGPVQAGETLRLSCTASGFTFAEADMGWYRQAPGHECELVSTITTEGITSEASSYYADSVRGRFTISRDNAKNMVYLQMNSLKPEDTAVYYCAPDPYAYSTYSDYCSWAQGTQGTLVTVSS
modifications: Camelid
inhibition of killing of U937 by TNF-alpha (TNF-alpha): inhibit killing of U937 by TNF-alpha

B2: anti-TNF-alpha VHH69: second anti-TNF-alpha sdAb (SEQ ID NO. 46) (protein)
VHH: EVQLVESGGGSVLAGGSLRLSCVASGFTSRYNYMAWFRQAPGKEREGVATIGTASGSADYYGSVKDRFTISQDNAKNTVYLQMNSLKPEDTAMYYCAARTYGTISLTPSDYRYWGQGTLVTVSS
modifications: Camelid
inhibition of killing of U937 by TNF-alpha (TNF-alpha): inhibit killing of U937 by TNF-alpha

B3: B.VHH14: second anti-STAT3 sdAb, named VHH14 (SEQ ID NO. 4) (protein)
VHH: QVQLVESGGGSVQAGGSLRLSCVASTYTGCMGWFRQAPGKEREGVAALSSRGFAGHYTDSVKGRFSISRDYVKNAVYLQMNTVKPEDAAMYYCAAREGWECGETWLDRTAGGHTYWGQGTLVTVSS
modifications: Camelid
Mean Absorbance (570 nM) ± S.E. (MDA-MB-231 cells; Day 3, 10.0 μg/ml, individual experiments 1-4 (Table 6)): 0.456 ± 0.048 and 0.499 ± 0.018 and 0.502 ± 0.048 and 0.559 ± 0.041
Mean Absorbance (570 nM) ± S.E., Overall Mean (MDA-MB-231 cells; Day 3, 10.0 μg/ml): 0.504 ± 0.021
Mean Absorbance (570 nM) ± S.E. (MDA-MB-231 cells; Day 3, 100 μg/ml, individual experiments 1-4 (Table 6)): 0.255 ± 0.005 and 0.357 ± 0.019 and 0.308 ± 0.021 and 0.287 ± 0.021
Mean Absorbance (570 nM) ± S.E., Overall Mean (MDA-MB-231 cells; Day 3, 100 μg/ml): 0.302 ± 0.043
Mean Absorbance (570 nM) ± S.E. (MDA-MB-231 cells; Day 5, 10.0 μg/ml, individual experiments 1-4 (Table 7)): 0.640 ± 0.011 and 0.338 ± 0.023 and 0.930 ± 0.044 and 0.842 ± 0.052
Mean Absorbance (570 nM) ± S.E., Overall Mean (MDA-MB-231 cells; Day 5, 10.0 μg/ml): 0.688 ± 0.131
Mean Absorbance (570 nM) ± S.E. (MDA-MB-231 cells; Day 5, 100 μg/ml, individual experiments 1-4 (Table 7)): 0.549 ± 0.023 and 0.274 ± 0.032 and 0.578 ± 0.039 and 0.499 ± 0.036
Mean Absorbance (570 nM) ± S.E., Overall Mean (MDA-MB-231 cells; Day 5, 100 μg/ml): 0.475 ± 0.0690
Mean Growth Inhibition (MDA-MB-231 cells; post 3 days, 10.0 μg/ml): 23.1% and 20.0% and 38.5% and 23.3%
Mean Growth Inhibition (MDA-MB-231 cells; post 3 days, 100 μg/ml): 57.0% and 42.8% and 62.3% and 60.6%
Mean Growth Inhibition (MDA-MB-231 cells; post 5 days, 10.0 μg/ml): 5.5% and 25.9% and 5.4% and 22.9%
Mean Growth Inhibition (MDA-MB-231 cells; post 5 days, 100 μg/ml): 18.9% and 39.9% and 41.2% and 54.3%
